The record followed here is paper PMC3319807 (Cancer Research, 2012).

The test concerns the target His-tagged full-length p53 (UniProt P04637 1-393). The experiment in a line: co-IP.

Sequence of His-tagged full-length p53 (P04637 whole entry): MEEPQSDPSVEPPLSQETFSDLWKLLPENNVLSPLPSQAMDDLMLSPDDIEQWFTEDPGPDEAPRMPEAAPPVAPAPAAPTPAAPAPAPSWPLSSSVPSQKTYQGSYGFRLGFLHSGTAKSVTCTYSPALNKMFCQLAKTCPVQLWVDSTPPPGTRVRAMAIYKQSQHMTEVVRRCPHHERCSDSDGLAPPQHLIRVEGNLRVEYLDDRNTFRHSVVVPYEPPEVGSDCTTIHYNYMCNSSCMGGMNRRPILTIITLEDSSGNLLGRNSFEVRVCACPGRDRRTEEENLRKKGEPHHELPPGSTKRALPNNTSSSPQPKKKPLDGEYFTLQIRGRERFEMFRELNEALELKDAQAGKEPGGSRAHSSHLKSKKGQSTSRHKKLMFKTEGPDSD

B1: His-tagged minimal-binding region of Dmp1 for p53 (M14: amino acids 87–224) (domain or fragment, UniProt Q8CE22 87-224, looked up)
chain: VTMTATTEVADDELSEGTVTQIQILQNDQLDEISPLGTEEVSAVSQAWFTTKEDKDSLTNKGHKWKQGMWSKEEIDILMNNIERYLKARGIKDATEIIFEMSKDERKDFYRTIAWGLNRPLFAVYRRVLRMYDDRNHV
For B1, the binding result is “binds”.
